Data on 16 compounds can be found in patent US9061070B2, “Treating stroke and other diseases without inhibiting N-type calcium channels” (NoNO, Inc., priority 2007, dated 2015).

One series has as its target N-type calcium channels (Mus musculus, UniProt O55017). Nature of the series: Whole-cell patch clamp recordings of calcium currents in dorsal root ganglion neurons. The format is cell-based, Swiss mice. In general terms: In patch-clamp work, channel activity is measured electrically.
For series [1] the following is noted: cited from earlier work.
For series [2], the system named is pial 3 vessel occlusion (P3VO) model of stroke. Description: Pial vessel occlusion (P3VO) model of permanent ischemia. In kind it is in vivo, Sprague Dawley rats. The following applies: for reduction of infarct size: single dose 3 nmol/g one hour after initiating ischemia, FIG. 3.
Another series deals with MCAO model of stroke. Particulars: previously tested; cited from earlier work.
A further series concerns the target N-type Ca channels (Homo sapiens, UniProt Q00975). In kind it is binding. Particulars: 10 μM peptide.
The mark [3] stands for this setting: peptide at 100 μM, mean+/-s.e.m., DRG neurons.
Where [4] appears, read: 3 nMol/g i.v. one hour after occlusion, 24 h, FIG. 8.

Read-outs that look alike come from different tables or passages of the source. Where no end group is shown, it is not given here. [ ]: non-standard residue; d: D form. Tle = CC(C)(C)[C@H](N)C(=O)O; Nva = CCC[C@H](N)C(=O)O

Sequence of N-type calcium channels (O55017 whole entry): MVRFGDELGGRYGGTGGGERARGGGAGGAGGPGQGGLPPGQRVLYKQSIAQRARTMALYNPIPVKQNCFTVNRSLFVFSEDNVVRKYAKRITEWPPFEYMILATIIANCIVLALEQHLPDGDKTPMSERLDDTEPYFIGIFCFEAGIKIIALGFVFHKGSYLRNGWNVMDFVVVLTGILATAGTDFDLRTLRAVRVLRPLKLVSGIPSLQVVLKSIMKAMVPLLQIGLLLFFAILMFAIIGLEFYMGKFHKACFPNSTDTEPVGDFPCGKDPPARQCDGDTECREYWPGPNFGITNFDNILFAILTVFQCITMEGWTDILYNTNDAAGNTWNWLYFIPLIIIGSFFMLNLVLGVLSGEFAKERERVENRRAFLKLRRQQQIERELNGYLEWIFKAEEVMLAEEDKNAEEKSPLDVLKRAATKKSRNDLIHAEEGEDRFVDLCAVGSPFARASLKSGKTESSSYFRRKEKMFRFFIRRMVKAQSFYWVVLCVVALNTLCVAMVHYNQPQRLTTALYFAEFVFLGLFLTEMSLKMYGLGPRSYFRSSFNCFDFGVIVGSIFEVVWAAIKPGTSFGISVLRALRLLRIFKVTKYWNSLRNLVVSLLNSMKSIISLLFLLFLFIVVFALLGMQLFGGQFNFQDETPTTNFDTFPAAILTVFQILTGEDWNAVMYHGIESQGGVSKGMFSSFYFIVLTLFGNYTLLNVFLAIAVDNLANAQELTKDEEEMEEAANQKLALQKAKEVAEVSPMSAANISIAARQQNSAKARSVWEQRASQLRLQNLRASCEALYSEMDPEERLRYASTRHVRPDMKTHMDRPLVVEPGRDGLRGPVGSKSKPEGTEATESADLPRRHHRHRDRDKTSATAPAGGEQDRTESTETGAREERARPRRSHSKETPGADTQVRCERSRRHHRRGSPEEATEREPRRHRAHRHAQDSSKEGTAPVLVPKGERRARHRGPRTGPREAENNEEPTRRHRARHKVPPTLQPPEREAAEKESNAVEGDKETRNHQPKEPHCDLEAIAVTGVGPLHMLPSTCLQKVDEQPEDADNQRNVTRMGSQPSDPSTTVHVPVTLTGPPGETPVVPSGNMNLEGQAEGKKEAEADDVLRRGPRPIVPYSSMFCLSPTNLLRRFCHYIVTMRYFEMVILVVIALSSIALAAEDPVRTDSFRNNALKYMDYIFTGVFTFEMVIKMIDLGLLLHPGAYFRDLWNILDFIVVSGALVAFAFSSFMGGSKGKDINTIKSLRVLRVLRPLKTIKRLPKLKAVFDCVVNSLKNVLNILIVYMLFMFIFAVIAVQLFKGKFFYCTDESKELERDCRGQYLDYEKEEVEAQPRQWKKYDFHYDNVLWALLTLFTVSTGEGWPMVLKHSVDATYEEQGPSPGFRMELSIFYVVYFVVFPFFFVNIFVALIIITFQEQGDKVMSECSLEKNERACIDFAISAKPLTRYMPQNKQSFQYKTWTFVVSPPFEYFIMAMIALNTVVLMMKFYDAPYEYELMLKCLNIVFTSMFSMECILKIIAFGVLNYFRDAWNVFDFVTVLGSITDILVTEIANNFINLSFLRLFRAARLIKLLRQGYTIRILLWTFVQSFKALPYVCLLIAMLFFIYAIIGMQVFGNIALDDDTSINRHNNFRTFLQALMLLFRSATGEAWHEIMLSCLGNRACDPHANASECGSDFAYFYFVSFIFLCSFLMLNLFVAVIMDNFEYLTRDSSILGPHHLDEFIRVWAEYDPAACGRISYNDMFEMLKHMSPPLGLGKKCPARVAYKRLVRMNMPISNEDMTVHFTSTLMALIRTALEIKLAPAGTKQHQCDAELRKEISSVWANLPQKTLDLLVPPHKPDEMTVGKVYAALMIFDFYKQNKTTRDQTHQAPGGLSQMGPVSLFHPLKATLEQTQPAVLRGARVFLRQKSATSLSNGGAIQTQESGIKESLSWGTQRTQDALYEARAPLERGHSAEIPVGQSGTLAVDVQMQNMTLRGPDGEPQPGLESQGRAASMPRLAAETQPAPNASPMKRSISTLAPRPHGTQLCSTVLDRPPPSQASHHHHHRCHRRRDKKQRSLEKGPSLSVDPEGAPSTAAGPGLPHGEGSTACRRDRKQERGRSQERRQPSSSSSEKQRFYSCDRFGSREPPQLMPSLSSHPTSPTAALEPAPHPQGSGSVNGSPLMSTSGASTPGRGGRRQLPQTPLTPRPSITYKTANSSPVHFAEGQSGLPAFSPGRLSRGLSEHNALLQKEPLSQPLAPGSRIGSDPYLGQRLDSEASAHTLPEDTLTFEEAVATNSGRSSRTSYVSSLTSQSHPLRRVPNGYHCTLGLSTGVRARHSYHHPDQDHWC
Sequence of N-type calcium channels (O08532 25-956 partner limits assumed): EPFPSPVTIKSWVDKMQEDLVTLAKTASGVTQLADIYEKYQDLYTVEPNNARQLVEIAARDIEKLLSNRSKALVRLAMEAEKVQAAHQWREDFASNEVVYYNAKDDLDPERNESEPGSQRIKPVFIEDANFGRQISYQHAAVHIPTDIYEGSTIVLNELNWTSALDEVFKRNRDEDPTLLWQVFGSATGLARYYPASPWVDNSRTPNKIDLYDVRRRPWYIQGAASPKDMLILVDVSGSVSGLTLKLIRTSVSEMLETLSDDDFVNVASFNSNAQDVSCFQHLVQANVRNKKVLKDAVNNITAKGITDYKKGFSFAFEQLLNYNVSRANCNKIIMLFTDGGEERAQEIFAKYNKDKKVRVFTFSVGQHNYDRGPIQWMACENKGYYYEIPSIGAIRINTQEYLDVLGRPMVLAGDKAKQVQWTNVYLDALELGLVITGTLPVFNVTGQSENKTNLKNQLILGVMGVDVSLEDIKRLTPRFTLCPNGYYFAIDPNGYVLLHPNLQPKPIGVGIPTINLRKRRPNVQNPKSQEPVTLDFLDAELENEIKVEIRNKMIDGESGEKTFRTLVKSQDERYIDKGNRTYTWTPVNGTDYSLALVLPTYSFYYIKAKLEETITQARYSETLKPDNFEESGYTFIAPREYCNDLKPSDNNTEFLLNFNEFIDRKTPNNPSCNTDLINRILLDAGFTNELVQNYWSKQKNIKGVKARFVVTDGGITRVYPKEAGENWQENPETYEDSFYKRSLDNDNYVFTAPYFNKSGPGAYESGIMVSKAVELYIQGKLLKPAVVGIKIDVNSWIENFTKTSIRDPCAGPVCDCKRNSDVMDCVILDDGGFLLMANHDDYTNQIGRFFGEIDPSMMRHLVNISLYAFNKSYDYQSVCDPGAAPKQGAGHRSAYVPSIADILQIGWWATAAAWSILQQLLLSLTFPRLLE
Sequence of N-type calcium channels (O08532 957-1103 partner limits assumed): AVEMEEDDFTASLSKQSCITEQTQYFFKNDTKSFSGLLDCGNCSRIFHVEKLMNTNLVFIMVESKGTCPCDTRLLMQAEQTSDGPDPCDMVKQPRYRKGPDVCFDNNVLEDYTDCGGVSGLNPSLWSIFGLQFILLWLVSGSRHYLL
Sequence of N-type calcium channels (P54285 whole entry partner): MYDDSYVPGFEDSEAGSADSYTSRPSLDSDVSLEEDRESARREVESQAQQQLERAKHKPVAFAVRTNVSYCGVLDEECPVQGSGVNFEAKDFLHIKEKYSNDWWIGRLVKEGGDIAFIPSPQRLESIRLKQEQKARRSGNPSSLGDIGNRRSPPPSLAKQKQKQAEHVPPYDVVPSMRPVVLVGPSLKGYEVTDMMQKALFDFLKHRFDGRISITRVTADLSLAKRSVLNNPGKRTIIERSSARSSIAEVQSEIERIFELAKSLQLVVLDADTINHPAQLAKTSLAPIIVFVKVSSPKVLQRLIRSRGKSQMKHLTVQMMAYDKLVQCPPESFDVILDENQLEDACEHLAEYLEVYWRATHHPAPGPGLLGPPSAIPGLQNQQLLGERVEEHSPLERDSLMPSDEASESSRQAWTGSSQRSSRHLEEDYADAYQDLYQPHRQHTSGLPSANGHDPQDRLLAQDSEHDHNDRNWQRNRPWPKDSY

With “1987: D-isomer of Tat-NR2B9c ([dY]G[dR][dK][dK][dR][dR][dQ][dR][dR][dR][dA][dL][dS][dS][dI][dE][dS][dD][dV]) [Peptide 1987]”, in the series with N-type calcium channels, the “Ca2+ current shown as a percentage (normalized to current before peptide)” value is given as 82+/−2.2% and the “inhibition of N-type calcium channel activity (in words)” value was “significant improvement in channel activity over TAT alone although still displayed some reduction”.

As for `N[C@@H](Cc1ccc(O)c(O)c1)C(=O)O` [Levodopa], the halflife entry in series [1] is listed as “halflife = 1.5 hrs”.

Regarding `CC[C@H](C)C(=O)O[C@H]1C[C@H](O)C=C2C=C[C@H](C)[C@H](CC[C@@H](O)C[C@@H](O)CC(=O)O)[C@H]21` [Pravachol ® (pravastatin), pravastatin], the bioavailability result in series [1] is listed as “efficacy, low”.

Regarding `NCCCC[C@H](N[C@@H](CCc1ccccc1)C(=O)O)C(=O)N1CCC[C@H]1C(=O)O` [Prinivil ® (lininopril), lininopril], the halflife result in series [1] is on record as “crossing, 12 hr”.

Consider “FGRKKRRQRRRALSSIESDV (also: fluorescent label, place not given here (F-Tat-NR2B9c)) [Peptide 1995]”, for which the “Ca2+ current shown as a percentage (normalized to current before peptide)” value with N-type calcium channels (setting [3]) is reported as 97+/−0.2%.

With “FGRKKRRQRRRKLSSIESDV (also: fluorescent label, place not given here (F-Tat-NR2B9c)) [Peptide 1993]”, the “reduction of infarct size” value in series [2] is listed as “equally effective in reducing infarct size”. Besides, the “inhibition of N-type calcium channel activity (in words)” value in the series with N-type calcium channels (FIG. 2, peptide at 100 μM) is recorded as “no significant inhibition”. In addition, the “Ca2+ current shown as a percentage (normalized to current before peptide)” value with N-type calcium channels (setting [3]) is on record as 91+/−1.6%.

As for “KLSSIESDV (Synthetic active peptide - 1991 2B9c) [Peptide 1991]”, the “inhibition of N-type calcium channel activity (in words)” value in the series with N-type calcium channels (FIG. 2, peptide at 100 μM) was “no significant inhibition”. Also, the “Ca2+ current shown as a percentage (normalized to current before peptide)” value with N-type calcium channels (setting [3]) was 94+/−1.7%.

Regarding “YGRKKRRQRRR [Peptide 1990, reference compound]”, in the series with N-type calcium channels, the “Ca2+ current shown as a percentage (normalized to current before peptide)” value was 57+/−1.6%.

On to “YGRKKRRQRRRALSSIESDV (Synthetic peptide - 1994 Tat-NR2B9c K to A) [Peptide 1994]”, for which the “inhibition of N-type calcium channel activity (in words)” value in the series with N-type calcium channels (FIG. 2, peptide at 100 μM) is given as “significant improvement in channel activity over TAT alone although still displayed some reduction”; in the series with N-type calcium channels (FIG. 2, peptide at 100 μM, listed as 1994 Tat-NR2B9c K to A), “no significant inhibition”. Further, the “Ca2+ current shown as a percentage (normalized to current before peptide)” value in the series with N-type calcium channels (setting [3]) was 77+/−1.8%.

Regarding “YGRKKRRQRRRKLSSIEADA (Synthetic peptide - 1992 Tat-NR2B9c-AA) [Peptide 1992]”, the “inhibition of N-type calcium channel activity (in words)” value with N-type calcium channels (FIG. 2, peptide at 100 μM) is “significant improvement in channel activity over TAT alone although still displayed some reduction”. Moreover, in the series with N-type calcium channels (setting [3]), the “Ca2+ current shown as a percentage (normalized to current before peptide)” value is reported as 74+/−2.4%.

For the compound “YGRKKRRQRRRKLSSIESDV [Tat-NR2B9c, reference compound]”, the “neuroprotection, infarct size” value in the series with MCAO model of stroke is recorded as “neuroprotective as seen by a reduced infarct size”. Besides, the “inhibition of radiolabeled ω-Conotoxin GVIA binding to N-type Ca channels” value with N-type Ca channels stood at 100%. Also, the “infarct size (percent of hemisphere)” value in series [2] (setting [4]) is “significantly decreased infarct sizes”. The “reduction of infarct size” value in series [2] was “equally effective in reducing infarct size”. The “frequency (use) dependence of block of Ca2+ currents” value in the series with N-type calcium channels (100 μM, 0.07, 10, 20, 50 Hz, FIG. 6) is on record as “not frequency dependent”. Besides, in the series with N-type calcium channels (setting [3]), the “Ca2+ current shown as a percentage (normalized to current before peptide)” value is on record as 68+/−1.7%. In addition, in the series with N-type calcium channels (steps from −40 to +50 mV, FIG. 7), the “voltage dependence of inhibition of Ca2+ current” value is on record as “independent of voltage”.

Consider “YGRKKRRQRRRKLSSIESDX (YGRKKRRQRRRKLSSIESD[Nva]) [Peptide 1976]”, for which the “infarct size (percent of hemisphere)” value in series [2] (setting [4]) is “significantly decreased infarct sizes”.

In the case of “YGRKKRRQRRRKLSSIESDX [1976] (YGRKKRRQRRRKLSSIESD[Nva]) [Peptide 1976]”, the “Ca2+ current shown as a percentage (normalized to current before peptide)” value in the series with N-type calcium channels (setting [3]) is listed as 66+/−3.4%.

Turning to “YGRKKRRQRRRKLSSIESDX [1977] (YGRKKRRQRRRKLSSIESD[Tle]) [Peptide 1977]”, the “Ca2+ current shown as a percentage (normalized to current before peptide)” value in the series with N-type calcium channels (setting [3]) is given as 65+/−5.1%.

Regarding “YGRKKRRQRRRKLSSIETDX (YGRKKRRQRRRKLSSIETD[Nva]) [Peptide 1975]”, the “infarct size (percent of hemisphere)” value in series [2] (setting [4]) is on record as “some reduction in infarct size”.

As to “YGRKKRRQRRRKLSSIEXDV (YGRKKRRQRRRKLSSIE[L‑2‑amino‑3‑ureidopropionic acid]DV) [Peptide 1978]”, the “infarct size (percent of hemisphere)” value in series [2] (rat, in vivo, iv) is “some reduction in infarct size”.
